Laboratory results as given in publication PMC8448314.

Biological target: Fc-tagged SARS-CoV-2 RBD (residues 319-535, C-terminal human IgG4 Fc region) (SARS-CoV-2 | human) (UniProt P0DTC2)
Test: SEC; Superose 6 Increase 10/300 GL gel filtration of each purified protein alone

Substance: Fc-tagged SARS-CoV-2 RBD (residues 319-535, C-terminal human IgG4 Fc region) (from UniProt P0DTC2 319-535) (Fc fusion)
- stoichiometry N: 2
